Data as given in IntAct's records for PubMed 21460856.
Each block holds one substance with its values, some of them ahead of it.

What was measured:
mdm2_human MDM2 = mdm2_human MDM2 (UniProt Q00987)
atm_human ATM = atm_human ATM (UniProt Q13315)
atm_human ATM, sequence (Q13315 whole entry): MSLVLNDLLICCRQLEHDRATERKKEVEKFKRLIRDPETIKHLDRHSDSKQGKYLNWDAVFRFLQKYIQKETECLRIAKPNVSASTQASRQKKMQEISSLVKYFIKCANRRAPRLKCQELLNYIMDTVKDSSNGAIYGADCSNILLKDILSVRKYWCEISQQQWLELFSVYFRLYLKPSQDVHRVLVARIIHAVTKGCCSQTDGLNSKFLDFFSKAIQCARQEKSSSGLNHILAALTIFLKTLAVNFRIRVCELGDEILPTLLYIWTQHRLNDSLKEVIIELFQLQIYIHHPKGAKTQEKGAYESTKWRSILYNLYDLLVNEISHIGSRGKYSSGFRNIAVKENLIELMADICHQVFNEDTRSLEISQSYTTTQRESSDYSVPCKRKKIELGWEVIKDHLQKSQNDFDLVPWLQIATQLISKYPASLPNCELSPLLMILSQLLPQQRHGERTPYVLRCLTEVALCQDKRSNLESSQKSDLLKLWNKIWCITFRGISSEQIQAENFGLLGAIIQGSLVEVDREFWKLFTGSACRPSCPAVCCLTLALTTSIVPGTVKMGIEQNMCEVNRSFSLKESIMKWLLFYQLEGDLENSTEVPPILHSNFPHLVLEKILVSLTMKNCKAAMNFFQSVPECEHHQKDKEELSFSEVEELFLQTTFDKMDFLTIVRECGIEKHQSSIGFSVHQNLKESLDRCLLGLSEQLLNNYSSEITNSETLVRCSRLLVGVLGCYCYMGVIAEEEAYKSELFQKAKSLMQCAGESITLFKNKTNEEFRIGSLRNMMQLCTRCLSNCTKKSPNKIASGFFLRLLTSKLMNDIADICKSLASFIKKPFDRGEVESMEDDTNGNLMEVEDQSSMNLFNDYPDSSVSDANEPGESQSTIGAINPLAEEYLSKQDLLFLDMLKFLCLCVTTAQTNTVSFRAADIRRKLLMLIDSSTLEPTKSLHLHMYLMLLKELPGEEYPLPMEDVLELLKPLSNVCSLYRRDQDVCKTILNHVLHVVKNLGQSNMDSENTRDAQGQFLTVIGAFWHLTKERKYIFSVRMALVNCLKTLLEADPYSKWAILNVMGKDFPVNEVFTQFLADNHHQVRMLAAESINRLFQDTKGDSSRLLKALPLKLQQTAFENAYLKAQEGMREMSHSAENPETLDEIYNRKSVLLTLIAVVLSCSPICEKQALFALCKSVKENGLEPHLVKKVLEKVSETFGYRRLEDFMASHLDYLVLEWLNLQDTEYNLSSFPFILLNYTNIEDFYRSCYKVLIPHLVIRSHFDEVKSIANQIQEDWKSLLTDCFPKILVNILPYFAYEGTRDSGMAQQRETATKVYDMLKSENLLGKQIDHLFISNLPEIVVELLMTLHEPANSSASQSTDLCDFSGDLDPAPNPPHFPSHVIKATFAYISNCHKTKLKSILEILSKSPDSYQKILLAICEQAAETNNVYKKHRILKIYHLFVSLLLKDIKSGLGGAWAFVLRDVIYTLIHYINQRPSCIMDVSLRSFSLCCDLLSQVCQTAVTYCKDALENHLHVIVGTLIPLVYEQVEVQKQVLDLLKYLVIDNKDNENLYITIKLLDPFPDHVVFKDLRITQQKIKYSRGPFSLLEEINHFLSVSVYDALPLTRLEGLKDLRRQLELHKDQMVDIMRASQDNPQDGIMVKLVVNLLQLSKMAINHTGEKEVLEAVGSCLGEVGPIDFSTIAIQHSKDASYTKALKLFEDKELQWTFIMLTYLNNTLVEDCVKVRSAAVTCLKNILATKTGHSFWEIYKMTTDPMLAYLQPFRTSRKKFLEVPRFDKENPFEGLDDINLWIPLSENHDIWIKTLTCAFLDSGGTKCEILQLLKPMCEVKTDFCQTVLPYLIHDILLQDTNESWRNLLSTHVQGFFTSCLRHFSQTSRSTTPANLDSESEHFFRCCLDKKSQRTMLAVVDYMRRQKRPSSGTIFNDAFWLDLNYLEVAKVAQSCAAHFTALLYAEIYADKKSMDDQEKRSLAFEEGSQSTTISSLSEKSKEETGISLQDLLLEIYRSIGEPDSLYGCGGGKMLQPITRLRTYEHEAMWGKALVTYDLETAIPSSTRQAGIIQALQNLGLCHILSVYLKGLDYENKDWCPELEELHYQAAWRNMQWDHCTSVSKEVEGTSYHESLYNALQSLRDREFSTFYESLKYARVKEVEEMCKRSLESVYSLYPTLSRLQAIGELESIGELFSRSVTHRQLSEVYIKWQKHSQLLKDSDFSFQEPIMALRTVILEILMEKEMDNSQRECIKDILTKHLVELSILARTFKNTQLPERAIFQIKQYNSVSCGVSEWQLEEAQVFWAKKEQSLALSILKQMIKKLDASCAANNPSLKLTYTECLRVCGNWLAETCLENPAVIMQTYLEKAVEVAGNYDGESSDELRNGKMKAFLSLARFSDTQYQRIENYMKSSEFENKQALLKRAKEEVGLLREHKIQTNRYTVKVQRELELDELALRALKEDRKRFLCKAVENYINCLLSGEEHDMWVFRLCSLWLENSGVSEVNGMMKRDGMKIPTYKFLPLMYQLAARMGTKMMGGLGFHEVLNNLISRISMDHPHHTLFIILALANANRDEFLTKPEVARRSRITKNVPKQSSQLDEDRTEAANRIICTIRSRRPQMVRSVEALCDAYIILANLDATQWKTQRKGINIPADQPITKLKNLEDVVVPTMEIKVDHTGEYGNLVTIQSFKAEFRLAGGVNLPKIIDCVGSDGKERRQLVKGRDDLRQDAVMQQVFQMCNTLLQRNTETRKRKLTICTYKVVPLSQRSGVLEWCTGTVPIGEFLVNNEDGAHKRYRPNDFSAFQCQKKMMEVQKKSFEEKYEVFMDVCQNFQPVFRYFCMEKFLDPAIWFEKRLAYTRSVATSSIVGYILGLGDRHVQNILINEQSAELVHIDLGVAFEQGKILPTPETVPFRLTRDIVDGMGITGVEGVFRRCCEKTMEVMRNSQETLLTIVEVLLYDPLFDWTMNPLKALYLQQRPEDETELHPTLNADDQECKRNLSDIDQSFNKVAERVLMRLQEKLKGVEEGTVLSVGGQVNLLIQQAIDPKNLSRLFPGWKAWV

mdm2_human MDM2, sequence (Q00987 whole entry, looked up): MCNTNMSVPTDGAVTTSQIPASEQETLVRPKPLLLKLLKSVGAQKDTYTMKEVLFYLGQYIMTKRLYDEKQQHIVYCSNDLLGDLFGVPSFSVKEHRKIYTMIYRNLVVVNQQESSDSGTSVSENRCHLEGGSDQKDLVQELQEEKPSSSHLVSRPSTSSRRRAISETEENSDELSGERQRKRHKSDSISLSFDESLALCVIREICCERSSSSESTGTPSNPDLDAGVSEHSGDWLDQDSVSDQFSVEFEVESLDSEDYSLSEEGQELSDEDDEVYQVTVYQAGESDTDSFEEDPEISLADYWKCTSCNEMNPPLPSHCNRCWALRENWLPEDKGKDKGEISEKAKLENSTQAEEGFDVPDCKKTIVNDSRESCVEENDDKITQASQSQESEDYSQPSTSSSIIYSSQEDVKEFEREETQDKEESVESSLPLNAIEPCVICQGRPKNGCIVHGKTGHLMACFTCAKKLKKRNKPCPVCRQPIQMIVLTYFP

- effect of a mutation on the interaction (PPP2R5C, Q13362-1): disrupting interaction
Substance: Serine-protein kinase ATM (Homo sapiens), Q13315 D2870A;N2875K

- effect of a mutation on the interaction (mdm2_human MDM2): disrupting interaction
Substance: Serine/threonine-protein phosphatase 2A 56 kDa regulatory subunit gamma isoform (Homo sapiens) (from UniProt Q13362) S520D

- effect of a mutation on the interaction (atm_human ATM): disrupting interaction
Substance: Serine/threonine-protein phosphatase 2A 56 kDa regulatory subunit gamma isoform (Homo sapiens) (from UniProt Q13362-1) S520A
